The text below walks through data of paper PMC523230, “Dictyostelium Myosin Bipolar Thick Filament Formation: Importance of Charge and Specific Domains of the Myosin Rod” (PLoS Biology, 2004).

Data set [1] concerns the molecule itself. Description: sedimentation assembly assay; self-assembly into filaments or paracrystals; 10 uM protein added to an equal volume, 10 mM imidazole pH 7.5, 0.1 mM EDTA, 1 mM DTT, 0-250 mM NaCl, on ice at least 30 min, 132,000 x g 15 min 4 °C; supernatant and pellet by SDS-PAGE.
A further data set concerns the target P08799. The description is as above. The note with it: other: sedimentation assembly assay.
Data set [2] concerns the molecule itself. Put plainly: AUC; sedimentation equilibrium; step: single chains to two-stranded coiled coil; 10.5-52 uM protein, 10 mM Tris pH 7.4, 0.1 mM EDTA, 500 mM NaCl, 10 °C, 10,000 rpm; fit to a single non-associating ideal species.

B1: Ala1-Ala2 (2xThr) (domain or fragment, Dictyostelium discoideum)
chain: MLDEIKRQYADVVSSRDKSVEQLKTLQAKNEELRNTAEEAEGQLDRAERSKKKAEFDLEEAVKNLEEETAKKVKAEKAMKKAETDYRSTKSELDDAKNVSSEQYVQIKRLNEELSELRSVLEEADERCNSAIKAKKTAESALESLKDEIDAANNAKAKAERKSKELEVRVAELEESLEDKSGTVNVEFIRKKDAEIDDLRARLDRETESRIKSDEDKKNTRKQFADLEAKVEEAQREVVTIDRLKKKLESDIIDLSTQLDTETKSRIKIEKSKKKLEQTLAERRAAEEGSSKAADEEIRKQVWQEVDELRAQLDSERAALNASEKKIKSLVAEVDEVKEQLEDEILAKDKLVKAKRALEVELEEVRDQLEEEEDSRSELEDSKRRLTTEVEDIKKKYDAEVEQNTKLDEAKKKLTDDVDTLKKQLEDEKKKLNESERAKKRLESENEDFLAKLDAEVKNRSRAEKDRKKYEKDLKDTKYKLNDEAATKTQTEIGAAKLEDQIDELRSKLEQEQAKATQADKSKKTLEGEIDNLRAQIEDEGKIKMRLEKEKRALEGELEELRETVEEAEDSKSEAEQSKRLVELELEDARRNLQKEIDAKEIAEDAKSNLQREIVEAKGR
notes: N-terminal methionine added before the myosin residues; Dictyostelium myosin-II heavy chain, a.a; 1,348-1,966 (Ala 1 through Ala 2); also called headless Ala1-Ala2 (2xThr); source: E. coli BL21-CodonPlus (DE3)-RIL, purified (boiling, DEAE, Superdex 200, Mono Q)
Regarding B1, in data set [1], the binding result was “binds”.

B2: Ala1-Cterm (3xThr) (domain or fragment, Dictyostelium discoideum)
chain: MLDEIKRQYADVVSSRDKSVEQLKTLQAKNEELRNTAEEAEGQLDRAERSKKKAEFDLEEAVKNLEEETAKKVKAEKAMKKAETDYRSTKSELDDAKNVSSEQYVQIKRLNEELSELRSVLEEADERCNSAIKAKKTAESALESLKDEIDAANNAKAKAERKSKELEVRVAELEESLEDKSGTVNVEFIRKKDAEIDDLRARLDRETESRIKSDEDKKNTRKQFADLEAKVEEAQREVVTIDRLKKKLESDIIDLSTQLDTETKSRIKIEKSKKKLEQTLAERRAAEEGSSKAADEEIRKQVWQEVDELRAQLDSERAALNASEKKIKSLVAEVDEVKEQLEDEILAKDKLVKAKRALEVELEEVRDQLEEEEDSRSELEDSKRRLTTEVEDIKKKYDAEVEQNTKLDEAKKKLTDDVDTLKKQLEDEKKKLNESERAKKRLESENEDFLAKLDAEVKNRSRAEKDRKKYEKDLKDTKYKLNDEAATKTQTEIGAAKLEDQIDELRSKLEQEQAKATQADKSKKTLEGEIDNLRAQIEDEGKIKMRLEKEKRALEGELEELRETVEEAEDSKSEAEQSKRLVELELEDARRNLQKEIDAKEIAEDAKSNLQREIVEAKGRLEEESIARTNSDRSRKRLEAEIDALTAQVDAEQKAKNQQIKENKKIETELKEYRKKFGESEKTKTKEFLVVEKLETDYKRAKKEAADEQQQRLTVENDLRKHLSEISLLKDAIDKLQRDHDKTKRELETETASKIEMQRKMADFFGGFKA
notes: N-terminal methionine added before the myosin residues; Dictyostelium myosin-II heavy chain, a.a; 1,348-2,116 (Ala 1 through C terminus); also called headless Ala1-Cterm (3xThr); source: E. coli BL21-CodonPlus (DE3)-RIL, purified (boiling, DEAE, Superdex 200, Mono Q)
In the case of B2, the binding result in data set [1] is “binds”.

B3: extended AD (2xAsp) (protein)
chain: MNVEFIRKKDAEIDDLRARLDRETESRIKSDEDKKNTRKQFADLEAKVEEAQREVVTIDRLKKKLESDIIDLSTQLDTETKSRIKIEKSKKKLEQTLAERRAAEEGSSKAADEEIRKQVWQEVDELRAQLDSERAALNASEKKIKSLVAEVDEVKEQLEDEILAKDKLVKAKRALEVELEEVRDQLEEEEDSRSELEDSKRRLTTEVEDIKKKYDAEVEQNTKLDEAKKKLTDDVDTLKKQLEDEKKKLNESERAKKRLESENEDFLAKLDAEVKNRSRAEKDRKKYEKDLKDDKYKLNDEAADKTQTEIG
Turning to B3, the “fold difference in solubility against extended AD (2xThr)” value with P08799 was “extended AD (2xThr) and extended AD (2xAsp) show a four-fold difference in solubility”.

B4: extended AD (2xThr) (domain or fragment, Dictyostelium discoideum)
chain: MNVEFIRKKDAEIDDLRARLDRETESRIKSDEDKKNTRKQFADLEAKVEEAQREVVTIDRLKKKLESDIIDLSTQLDTETKSRIKIEKSKKKLEQTLAERRAAEEGSSKAADEEIRKQVWQEVDELRAQLDSERAALNASEKKIKSLVAEVDEVKEQLEDEILAKDKLVKAKRALEVELEEVRDQLEEEEDSRSELEDSKRRLTTEVEDIKKKYDAEVEQNTKLDEAKKKLTDDVDTLKKQLEDEKKKLNESERAKKRLESENEDFLAKLDAEVKNRSRAEKDRKKYEKDLKDTKYKLNDEAATKTQTEIG
notes: N-terminal methionine added before the myosin residues; Dictyostelium myosin-II heavy chain, a.a; 1,531-1,840; also called headless extended AD (2xThr); source: E. coli BL21-CodonPlus (DE3)-RIL, purified (boiling, DEAE, Superdex 200, Mono Q)
With B4, the binding result in data set [1] is recorded as “binds”.

B5: AD-Ala 2 (2xThr) (domain or fragment, Dictyostelium discoideum)
chain: MNVEFIRKKDAEIDDLRARLDRETESRIKSDEDKKNTRKQFADLEAKVEEAQREVVTIDRLKKKLESDIIDLSTQLDTETKSRIKIEKSKKKLEQTLAERRAAEEGSSKAADEEIRKQVWQEVDELRAQLDSERAALNASEKKIKSLVAEVDEVKEQLEDEILAKDKLVKAKRALEVELEEVRDQLEEEEDSRSELEDSKRRLTTEVEDIKKKYDAEVEQNTKLDEAKKKLTDDVDTLKKQLEDEKKKLNESERAKKRLESENEDFLAKLDAEVKNRSRAEKDRKKYEKDLKDTKYKLNDEAATKTQTEIGAAKLEDQIDELRSKLEQEQAKATQADKSKKTLEGEIDNLRAQIEDEGKIKMRLEKEKRALEGELEELRETVEEAEDSKSEAEQSKRLVELELEDARRNLQKEIDAKEIAEDAKSNLQREIVEAKGR
notes: N-terminal methionine added before the myosin residues; Dictyostelium myosin-II heavy chain, a.a; 1,531-1,966 (AD through Ala 2); also called headless AD-Ala2 (2xThr); source: E. coli BL21-CodonPlus (DE3)-RIL, purified (boiling, DEAE, Superdex 200, Mono Q)
Take B5: the binding result in data set [1] is “binds”.

B6: AD-Cterm (3xAsp) myosin-II tail fragment (domain or fragment, Dictyostelium discoideum)
chain: MNVEFIRKKDAEIDDLRARLDRETESRIKSDEDKKNTRKQFADLEAKVEEAQREVVTIDRLKKKLESDIIDLSTQLDTETKSRIKIEKSKKKLEQTLAERRAAEEGSSKAADEEIRKQVWQEVDELRAQLDSERAALNASEKKIKSLVAEVDEVKEQLEDEILAKDKLVKAKRALEVELEEVRDQLEEEEDSRSELEDSKRRLTTEVEDIKKKYDAEVEQNTKLDEAKKKLTDDVDTLKKQLEDEKKKLNESERAKKRLESENEDFLAKLDAEVKNRSRAEKDRKKYEKDLKDDKYKLNDEAADKTQTEIGAAKLEDQIDELRSKLEQEQAKATQADKSKKTLEGEIDNLRAQIEDEGKIKMRLEKEKRALEGELEELRETVEEAEDSKSEAEQSKRLVELELEDARRNLQKEIDAKEIAEDAKSNLQREIVEAKGRLEEESIARTNSDRSRKRLEAEIDALTAQVDAEQKAKNQQIKENKKIETELKEYRKKFGESEKDKTKEFLVVEKLETDYKRAKKEAADEQQQRLTVENDLRKHLSEISLLKDAIDKLQRDHDKTKRELETETASKIEMQRKMADFFGGFKA
notes: N-terminal methionine added before the myosin residues; Dictyostelium myosin-II heavy chain, a.a; 1,531-2,116, aspartic acids in place of the three threonine phosphorylation sites; Phosphomimetic; also called headless AD-Cterm (3xAsp); 3xAsp tail fragment; source: E. coli BL21-CodonPlus (DE3)-RIL, purified (boiling, DEAE, Superdex 200, Mono Q)
As usually defined, the stoichiometry N is the number of molecules, sites or subunits per partner or assembly. On to B6, for which the “stoichiometry N” value in data set [2] stood at 2. Further, in the data set with P08799, the “fold difference in solubility against AD-Cterm (3xThr)” value was “eight-fold difference in solubility of full-length unphosphorylated and phosphorylated myosin, respectively, and AD-Cterm (3xThr) and AD-Cterm (3xAsp), respectively”.

B7: AD-Cterm (3xThr) myosin-II tail fragment (domain or fragment, Dictyostelium discoideum)
chain: MNVEFIRKKDAEIDDLRARLDRETESRIKSDEDKKNTRKQFADLEAKVEEAQREVVTIDRLKKKLESDIIDLSTQLDTETKSRIKIEKSKKKLEQTLAERRAAEEGSSKAADEEIRKQVWQEVDELRAQLDSERAALNASEKKIKSLVAEVDEVKEQLEDEILAKDKLVKAKRALEVELEEVRDQLEEEEDSRSELEDSKRRLTTEVEDIKKKYDAEVEQNTKLDEAKKKLTDDVDTLKKQLEDEKKKLNESERAKKRLESENEDFLAKLDAEVKNRSRAEKDRKKYEKDLKDTKYKLNDEAATKTQTEIGAAKLEDQIDELRSKLEQEQAKATQADKSKKTLEGEIDNLRAQIEDEGKIKMRLEKEKRALEGELEELRETVEEAEDSKSEAEQSKRLVELELEDARRNLQKEIDAKEIAEDAKSNLQREIVEAKGRLEEESIARTNSDRSRKRLEAEIDALTAQVDAEQKAKNQQIKENKKIETELKEYRKKFGESEKTKTKEFLVVEKLETDYKRAKKEAADEQQQRLTVENDLRKHLSEISLLKDAIDKLQRDHDKTKRELETETASKIEMQRKMADFFGGFKA
notes: N-terminal methionine added before the myosin residues; Dictyostelium myosin-II heavy chain, a.a; 1,531-2,116 (assembly domain through C terminus); the assembly rows are about coiled coils joining into paracrystals; also called headless AD-Cterm (3xThr); wild-type tail fragment; source: E. coli BL21-CodonPlus (DE3)-RIL, purified (boiling, DEAE, Superdex 200, Mono Q)
For the protein B7, the “stoichiometry N” value in data set [2] is 2.

B8: AD (1xThr) myosin-II assembly domain (domain or fragment, Dictyostelium discoideum)
chain: MNVEFIRKKDAEIDDLRARLDRETESRIKSDEDKKNTRKQFADLEAKVEEAQREVVTIDRLKKKLESDIIDLSTQLDTETKSRIKIEKSKKKLEQTLAERRAAEEGSSKAADEEIRKQVWQEVDELRAQLDSERAALNASEKKIKSLVAEVDEVKEQLEDEILAKDKLVKAKRALEVELEEVRDQLEEEEDSRSELEDSKRRLTTEVEDIKKKYDAEVEQNTKLDEAKKKLTDDVDTLKKQLEDEKKKLNESERAKKRLESENEDFLAKLDAEVKNRSRAEKDRKKYEKDLKDTK
notes: N-terminal methionine added before the myosin residues; Dictyostelium myosin-II heavy chain, assembly domain, a.a; 1,531-1,824; also called headless AD (1xThr); 34-kDa assembly domain; source: E. coli BL21-CodonPlus (DE3)-RIL, purified (boiling, DEAE, Superdex 200, Mono Q)
For the protein B8, the binding result in data set [1] is on record as “binds”.

B9: AD (1xAsp) myosin-II assembly domain (domain or fragment, Dictyostelium discoideum)
chain: MNVEFIRKKDAEIDDLRARLDRETESRIKSDEDKKNTRKQFADLEAKVEEAQREVVTIDRLKKKLESDIIDLSTQLDTETKSRIKIEKSKKKLEQTLAERRAAEEGSSKAADEEIRKQVWQEVDELRAQLDSERAALNASEKKIKSLVAEVDEVKEQLEDEILAKDKLVKAKRALEVELEEVRDQLEEEEDSRSELEDSKRRLTTEVEDIKKKYDAEVEQNTKLDEAKKKLTDDVDTLKKQLEDEKKKLNESERAKKRLESENEDFLAKLDAEVKNRSRAEKDRKKYEKDLKDDK
notes: N-terminal methionine added before the myosin residues; Dictyostelium myosin-II heavy chain, assembly domain, a.a; 1,531-1,824; also called headless AD (1xAsp); source: E. coli BL21-CodonPlus (DE3)-RIL, purified (boiling, DEAE, Superdex 200, Mono Q)
With B9, the binding result in data set [1] is listed as “binds”.
